The RNAGym collection of RNA variant scans (doi:10.7554/elife.80360)

B1: CPEB3 Ribozyme (parent)
chain: GGGGGCCACAGCAGAAGCGUUCACGUCGCGGCCCCUGUCAGAUUCUGGUGAAUCUGCGAAUUCUGCUGU

Variants of: B1
Assay: self-cleavage, relative activity (ratio to wild type); higher = more cleavage; co-transcriptional

In order of rising self-cleavage:
1. G37U G41C  0.139
2. G37C U62G  0.157
3. G37C C39G  0.167
4. G37U C54G  0.168
5. G37C C45A  0.168
6. G37C A51U  0.171
7. G37C U46C  0.174
8. G37U C57A  0.174
9. G37C C66G  0.177
10. G37C A40G  0.181
11. G37C G48A  0.182
12. G37C A59C  0.183
13. G37U C39U  0.186
14. G37C U44C  0.187
15. G37C G50U  0.188
16. G37C C57G  0.189
17. G37C G47A  0.189
18. G37C C57U  0.192
19. G37A G41C  0.192
20. G37U A59U  0.197
21. G37C U61A  0.201
22. G37C G41U  0.201
23. G37C U38C  0.201
24. G37U C66G  0.201
25. G37C C54A  0.201
26. G37A U61A  0.202
27. G37C U43C  0.203
28. G37C C45U  0.203
29. G37C U64G  0.205
30. G37C G56A  0.205
31. G37U A40C  0.205
32. G37U G56C  0.206
33. G37C G47U  0.209
34. G37U U43A  0.209
35. G37A A60G  0.209
36. G37C U62A  0.212
37. G37A A59C  0.213
38. G37A G50C  0.215
39. G37C C39A  0.215
40. G37A U55C  0.216
41. G37C A52C  0.216
42. G37A C57A  0.217
43. G37C C66A  0.222
44. G37A U44G  0.223
45. G37C U61C  0.223
46. G37U G56U  0.224
47. G37A U62A  0.225
48. G37U C54A  0.227
49. G37A C63A  0.228
50. G37A U53C  0.231
51. G37A G41A  0.231
52. G37A G56C  0.232
53. G37C A42U  0.234
54. G37U G65A  0.234
55. G37C A59G  0.234
56. G37C U49G  0.234
57. G37U A42G  0.234
58. G37A C54A  0.235
59. G37A C39A  0.236
60. G37C A60C  0.236
61. G37C U55G  0.236
62. G37C G56U  0.237
63. G37C G65U  0.237
64. G37U U38C  0.239
65. G37U C63A  0.239
66. G37A C57G  0.241
67. G37C  0.241
68. G37C G58A  0.242
69. G37C C57A  0.242
70. G37C A40C  0.242
71. G37U G41A  0.244
72. G37A A40U  0.244
73. G37C G68C  0.245
74. G37C G68U  0.245
75. G37C G65A  0.246
76. G37C U38A  0.246
77. G37A U64A  0.246
78. G37U A42U  0.246
79. G37C C66U  0.246
80. G37A C57U  0.247
81. G37C C63G  0.25
82. G37C U55A  0.25
83. G37C C54U  0.25
84. G37C A51C  0.251
85. G37A U38G  0.251
86. G37A G48U  0.251
87. G37A G65A  0.252
88. G37U U38G  0.254
89. G37A U64G  0.254
90. G37C U53A  0.256
91. G37U A42C  0.256
92. G37C G50A  0.257
93. G37A G65C  0.258
94. G37C C63A  0.261
95. G37A U43C  0.261
96. G37A U43A  0.261
97. G37A C66U  0.263
98. G37C U43A  0.264
99. G37C A52G  0.264
100. G37U C57U  0.264
101. G37C G50C  0.265
102. G37U G65U  0.265
103. G37C U55C  0.267
104. G37C A40U  0.267
105. G37U C66A  0.267
106. G37C C39U  0.268
107. G37A A52G  0.268
108. G37U C63U  0.271
109. G37A A52U  0.273
110. G37A U55A  0.275
111. G37A A42U  0.275
112. G37C G58C  0.277
113. G37U G58C  0.279
114. G37U G56A  0.28
115. G37A G50U  0.28
116. G37C C63U  0.281
117. G37A U46G  0.281
118. G37A C45G  0.281
119. G37U A52G  0.282
120. G37C U61G  0.282
121. G37C U67C  0.282
122. G37A A51U  0.285
123. G37U C45G  0.286
124. G37C U49C  0.286
125. G37C G48U  0.288
126. G37A U38A  0.291
127. G37A A42C  0.293
128. G37C G68A  0.304
129. G37C A60U  0.306
130. G37A G47C  0.308
131. G37U C63G  0.312
132. G37A G47A  0.312
133. G37U C45U  0.316
134. G37U A52U  0.317
135. G37U  0.319
136. G37A U62C  0.321
137. G37U U38A  0.321
138. G37U G48U  0.322
139. G37A G65U  0.325
140. G37A U44C  0.326
141. G37A A40G  0.334
142. G37A U46C  0.338
143. G37A U38C  0.34
144. G37A G58C  0.344
145. G37A C45U  0.351
146. G37U G47C  0.352
147. G37C G58U  0.353
148. G37A U43G  0.359
149. G37A A59G  0.36
150. G37A G47U  0.36
151. G37U G58U  0.362
152. G37A C63U  0.364
153. G37U G47U  0.365
154. G37U A40G  0.366
155. G37A U49G  0.37
156. G37A C39U  0.372
157. G37A U46A  0.375
158. G37C U69G  0.375
159. G37A G68A  0.377
160. G37U G50U  0.379
161. G37A G68U  0.385
162. G37U G48A  0.388
163. G37A U67A  0.389
164. G37A C54U  0.417
165. G37U G68C  0.42
166. G37U G68A  0.438
167. G37A U69C  0.498
